Reference: patent US20210139548A1 (published 2021)
*1 amine or outer side, *2 acyl side, *3 side chain or, on linkers, in order; H or OH if unused. Side-chain parts run from the residue outwards. The star is where a group is joined. C18 diacid = O=C(O)CCCCCCCCCCCCCCCCC(=O)*; γGlu = O=C(O)[C@H](CCC(=O)[*:2])N[*:1]; Isovaleryl = CC(C)CC(=O)*; AEEA = NCCOCCOCC(=O)O

T1: human neuropeptide Y2 receptor (human, UniProt P49146 1-381)
T1 construct: whole, on cells; also called hNPY2 receptor; hNPY2-R
T1 sequence (looked up): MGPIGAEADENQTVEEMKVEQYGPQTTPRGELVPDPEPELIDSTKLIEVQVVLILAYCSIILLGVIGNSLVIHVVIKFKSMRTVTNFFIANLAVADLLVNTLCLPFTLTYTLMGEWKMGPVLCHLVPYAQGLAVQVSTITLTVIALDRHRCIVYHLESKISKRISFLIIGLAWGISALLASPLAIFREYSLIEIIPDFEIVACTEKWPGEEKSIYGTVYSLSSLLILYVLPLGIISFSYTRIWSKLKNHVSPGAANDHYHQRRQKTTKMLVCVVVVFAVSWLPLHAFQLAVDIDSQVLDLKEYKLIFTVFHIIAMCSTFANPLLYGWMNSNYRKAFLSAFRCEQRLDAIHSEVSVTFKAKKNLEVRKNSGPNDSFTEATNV


Molecular target: T1, human neuropeptide Y2 receptor
Test: radioligand competition (125I-PYY(1-36)), hNPY2R membranes
In short: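 Commercial human Y2 receptor membranes (0.5 μg protein/well) were incubated with peptide for 2 h at room temperature in 50 mM HEPES, 5 mM MgCl₂, 1 mM CaCl₂, pH 7.4, with 0.2% ovalbumin. Bound radioligand was separated on PEI-soaked GF/C filters and counted by scintillation, and IC₅₀ came from nonlinear sigmoidal regression.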

| Ki | Binder |
| --- | --- |
| 3.29 nM | Isovaleryl-APEK([AEEA-AEEA-γGlu-C18 diacid])PEEDATPEELQRYYVELRHYYNWLTRQRY-NH2 (SMILES CC(C)CC(=O)N[C@@H](C)C(=O)N1CCC[C@H]1C(=O)N[C@@H](CCC(=O)O)C(=O)N[C@@H](CCCCNC(=O)COCCOCCNC(=O)COCCOCCNC(=O)CC[C@H](NC(=O)CCCCCCCCCCCCCCCCC(=O)O)C(=O)O)C(=O)N1CCC[C@H]1C(=O)N[C@@H](CCC(=O)O)C(=O)N[C@@H](CCC(=O)O)C(=O)N[C@@H](CC(=O)O)C(=O)N[C@@H](C)C(=O)N[C@H](C(=O)N1CCC[C@H]1C(=O)N[C@@H](CCC(=O)O)C(=O)N[C@@H](CCC(=O)O)C(=O)N[C@@H](CC(C)C)C(=O)N[C@@H](CCC(N)=O)C(=O)N[C@@H](CCCNC(=N)N)C(=O)N[C@@H](Cc1ccc(O)cc1)C(=O)N[C@@H](Cc1ccc(O)cc1)C(=O)N[C@H](C(=O)N[C@@H](CCC(=O)O)C(=O)N[C@@H](CC(C)C)C(=O)N[C@@H](CCCNC(=N)N)C(=O)N[C@@H](Cc1c[nH]cn1)C(=O)N[C@@H](Cc1ccc(O)cc1)C(=O)N[C@@H](Cc1ccc(O)cc1)C(=O)N[C@@H](CC(N)=O)C(=O)N[C@@H](Cc1c[nH]c2ccccc12)C(=O)N[C@@H](CC(C)C)C(=O)N[C@H](C(=O)N[C@@H](CCCNC(=N)N)C(=O)N[C@@H](CCC(N)=O)C(=O)N[C@@H](CCCNC(=N)N)C(=O)N[C@@H](Cc1ccc(O)cc1)C(N)=O)[C@@H](C)O)C(C)C)[C@@H](C)O) [Compound 101] |
| 0.87 nM | Isovaleryl-APEK([AEEA-AEEA-γGlu-C18 diacid])PEEDASPEELQRYYVTLRHYYNWLTRQRY-NH2 (SMILES CC(C)CC(=O)N[C@@H](C)C(=O)N1CCC[C@H]1C(=O)N[C@@H](CCC(=O)O)C(=O)N[C@@H](CCCCNC(=O)COCCOCCNC(=O)COCCOCCNC(=O)CC[C@H](NC(=O)CCCCCCCCCCCCCCCCC(=O)O)C(=O)O)C(=O)N1CCC[C@H]1C(=O)N[C@@H](CCC(=O)O)C(=O)N[C@@H](CCC(=O)O)C(=O)N[C@@H](CC(=O)O)C(=O)N[C@@H](C)C(=O)N[C@@H](CO)C(=O)N1CCC[C@H]1C(=O)N[C@@H](CCC(=O)O)C(=O)N[C@@H](CCC(=O)O)C(=O)N[C@@H](CC(C)C)C(=O)N[C@@H](CCC(N)=O)C(=O)N[C@@H](CCCNC(=N)N)C(=O)N[C@@H](Cc1ccc(O)cc1)C(=O)N[C@@H](Cc1ccc(O)cc1)C(=O)N[C@H](C(=O)N[C@H](C(=O)N[C@@H](CC(C)C)C(=O)N[C@@H](CCCNC(=N)N)C(=O)N[C@@H](Cc1c[nH]cn1)C(=O)N[C@@H](Cc1ccc(O)cc1)C(=O)N[C@@H](Cc1ccc(O)cc1)C(=O)N[C@@H](CC(N)=O)C(=O)N[C@@H](Cc1c[nH]c2ccccc12)C(=O)N[C@@H](CC(C)C)C(=O)N[C@H](C(=O)N[C@@H](CCCNC(=N)N)C(=O)N[C@@H](CCC(N)=O)C(=O)N[C@@H](CCCNC(=N)N)C(=O)N[C@@H](Cc1ccc(O)cc1)C(N)=O)[C@@H](C)O)[C@@H](C)O)C(C)C) [Compound 102] |
